Consider one molecule from article PMC10119634 (Blood Advances, 2022).

The test deals with T1, GPVIex (nonglycosylated human GPVI extracellular domain residues 1 to 183) (Homo sapiens).
T1 chain: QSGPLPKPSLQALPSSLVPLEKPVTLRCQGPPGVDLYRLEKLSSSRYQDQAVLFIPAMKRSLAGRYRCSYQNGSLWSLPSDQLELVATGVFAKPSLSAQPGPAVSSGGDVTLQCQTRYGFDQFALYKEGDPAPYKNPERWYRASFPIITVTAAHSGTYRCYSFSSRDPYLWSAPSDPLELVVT
Briefly: crystal structure.

B1: Glenzocimab (Fab, V domains shown)
VH: QVQLVQSGAEVKKPGASVKVSCKASGYTFTSYNMHWVRQAPGQGLEWMGGIYPGNGDTSYNQKFQGRVTMTRDTSTSTVYMELSSLRSEDTAVYYCARGTVVGDWYFDVWGQGTLVTVSS
VL: DIQMTQSPSSLSASVGDRVTITCRSSQSLENSNGNTYLNWYQQKPGKAPKLLIYRVSNRFSGVPSRFSGSGSGTDFTFTISSLQPEDIATYYCLQLTHVPWTFGQGTKVEIT
Take B1: the binding result was “binds”.
